# Assay results taken from article PMC7870846, “Incorporation of sensing modalities into de novo designed fluorescence-activating proteins” (Nature Communications, 2021).
# B1: MBP-tagged split mFAP fragment m38 (domain or fragment)
# chain: YTMDIVAQGTISDGRPIVGYGKATVKTPDTLDIDITYPSLGNIKAQGQITMDSPTQFKWDATTKGENDFHGRLTGTLQRQE
# modifications: here or on the partner: strands 3-8; cut assumed in loop2 (34/35); MBP omitted / strands 1-2 of mFAP2a; cut assumed in loop2 (34/35, as in cp35-34); exact limits are in Supplementary Data 1, not shown; MBP omitted
# Legend:
# [1] = target: MBP-tagged split mFAP fragment m12; assay: other fluorescence titration; MBP-tagged fragment titrated into its complementary MBP-tagged fragment; 25.0 uM DFHBI-1T; high-salt Tev cleavage buffer (25.0 mM Tris, 100 mM NaCl, pH 8.00); ex 468 nm, em 530 nm; estimated Kd, signal did not plateau
# [2] = target: MBP-tagged split mFAP fragment m12; assay: split reporter (BiFC, NanoBiT); protein-fragment complementation in vitro: complementary MBP-fused split mFAP fragments mixed at equimolar concentration with excess DFHBI-1T (1.00 uL of 1.25 mM in 25.0 uL); fluorescence endpoint ex 478 nm, em 520 nm; background without protein
binder,measurement,setting,value
B1,Kd,[1],> 281 µM
same,fold mean fluorescence intensity over background,[2],7.34 fold
same,fold mean fluorescence intensity over the combination m1 and m28,[2],184 fold
